These results are taken from article doi:10.1101/2024.04.25.591137 (bioRxiv, 2024).

This series concerns the molecule itself. Nature of the series: negative-stain TEM of fibrils.

On to Ac-SFYVYSRVK-NH2 [SK9, SARS-CoV-2 envelope protein peptide SFYVYSRVK], for which the binding result is on record as “binds”.

As to Ac-LVKPSFYVYSRVKNLNSSRV-NH2 [LV20, 20-residue SARS-CoV-2 envelope protein peptide LVKPSFYVYSRVKNLNSSRV], the binding result is recorded as “binds”.
